In the RNAGym collection of RNA variant scans (doi:10.7554/elife.80360) one finds self-cleavage data, which are given here for 38 variants.

The chains are these.
B1: Hairpin Ribozyme (parent)
chain: GUCCUCUUUCACGUGCGCGUGAAAGAGAGAAGUGAACCAGAGAAACACACGUUGUGGUAUAUUACCUGGUA

The variants in this data set derive from B1. The data set can be described thus: self-cleavage, relative activity (ratio to wild type); higher = more cleavage; co-transcriptional.
Regarding GUCCUCUUUCACGUGCGCGUGAAAGAGAGAGGUGAACCAGAGAAACACACGUCGUGGUAUAUUACCUGGUA [A31G U53C], the self-cleavage worked out at 0.846.

Turning to GUCCUCUUUCACGUGCGCGUGAAAGAGAGAGGUGAACCAGAGAAACACACGUAGUGGUAUAUUACCUGGUA [A31G U53A], the self-cleavage came out at 0.673.

Take GUCCUCUUUCACGUGCGCGUGAAAGAGAGACGUGAACCAGAGAAACACACGUUGUGGUAUAUUACCUGGAA [A31C U70A]: the self-cleavage was determined as 0.131.

In the case of GUCCUCUUUCACGUGCGCGUGAAAGAGAGACGUGAACCAGAGAAACACACGUUGUGGUAUAUUACCCGGUA [A31C U67C], the self-cleavage was 0.0604.

In the case of GUCCUCUUUCACGUGCGCGUGAAAGAGAGACGUGAACCAGAGAAACACACGUUGUGGUAUAUUACCAGGUA [A31C U67A], the self-cleavage is 0.2.

GUCCUCUUUCACGUGCGCGUGAAAGAGAGACGUGAACCAGAGAAACACACCUUGUGGUAUAUUACCUGGUA [A31C G51C]: the self-cleavage came out at 0.182.

Take GUCCUCUUUCACGUGCGCGUGAAAGAGAGACGUGAACCAGAGAAACACUCGUUGUGGUAUAUUACCUGGUA [A31C A49U]: the self-cleavage came out at 0.151.

As for GUCCUCUUUCACGUGCGCGUGAAAGAGAGACGUGAACCAGAGAAACACCCGUUGUGGUAUAUUACCUGGUA [A31C A49C], the self-cleavage was found to be 0.149.

For GUCCUCUUUCACGUGCGCGUGAAAGAGAGACGUAAACCAGAGAAACACACGUUGUGGUAUAUUACCUGGUA [A31C G34A], the self-cleavage worked out at 0.163.

With GUCCUCUUUCACGUGCGCGUGAAAGAGAGACGUGAACCAGAGAAACAGACGUUGUGGUAUAUUACCUGGUA [A31C C48G], the self-cleavage came out at 0.103.

Take GUCCUCUUUCACGUGCGCGUGAAAGAGAGACGUGAACCAGAGAAACAAACGUUGUGGUAUAUUACCUGGUA [A31C C48A]: the self-cleavage is 0.115.

Regarding GUCCUCUUUCACGUGCGCGUGAAAGAGAGAGGUGAGCCAGAGAAACACACGUUGUGGUAUAUUACCUGGUA [A31G A36G], the self-cleavage came out at 0.57.

In the case of GUCCUCUUUCACGUGCGCGUGAAAGAGAGACGUGAACCAGAGAAACACAUGUUGUGGUAUAUUACCUGGUA [A31C C50U], the self-cleavage turned out to be 0.0888.

As for GUCCUCUUUCACGUGCGCGUGAAAGAGAGAGGUGAACCAGAGAAACACAAGUUGUGGUAUAUUACCUGGUA [A31G C50A], the self-cleavage is 0.146.

As to GUCCUCUUUCACGUGCGCGUGAAAGAGAGACGCGAACCAGAGAAACACACGUUGUGGUAUAUUACCUGGUA [A31C U33C], the self-cleavage stood at 0.18.

Consider GUCCUCUUUCACGUGCGCGUGAAAGAGAGAGGUGAACCAGAGAAACACACGUUGUGGUAUAUUACCUGGUA [A31G], for which the self-cleavage turned out to be 0.729.

On to GUCCUCUUUCACGUGCGCGUGAAAGAGAGAUGUGAACCAGAGAAACACACGUUGUGGUAUAUUACCUGGUA [A31U], for which the self-cleavage was 0.129.

For GUCCUCUUUCACGUGCGCGUGAAAGAGAGAGGUGAACCAGAGAAACACACGUUGUGGUUUAUUACCUGGUA [A31G A59U], the self-cleavage worked out at 0.184.

For the variant GUCCUCUUUCACGUGCGCGUGAAAGAGAGAGGUGAACCAGAGAAACACACGUUGUGGUGUAUUACCUGGUA [A31G A59G], the self-cleavage stood at 0.205.

With GUCCUCUUUCACGUGCGCGUGAAAGAGAGAGGUGAACCAGAGAAACACGCGUUGUGGUAUAUUACCUGGUA [A31G A49G], the self-cleavage was 0.241.

Turning to GUCCUCUUUCACGUGCGCGUGAAAGAGAGAGGUGAACCAGAGAAACACCCGUUGUGGUAUAUUACCUGGUA [A31G A49C], the self-cleavage came out at 0.162.

Consider GUCCUCUUUCACGUGCGCGUGAAAGAGAGACGUGAACCAUAGAAACACACGUUGUGGUAUAUUACCUGGUA [A31C G40U], for which the self-cleavage came to 0.0621.

For the variant GUCCUCUUUCACGUGCGCGUGAAAGAGAGACGUGAACCAAAGAAACACACGUUGUGGUAUAUUACCUGGUA [A31C G40A], the self-cleavage was found to be 0.131.

With GUCCUCUUUCACGUGCGCGUGAAAGAGAGACGUGAACCAGAGAAACACACGUUCUGGUAUAUUACCUGGUA [A31C G54C], the self-cleavage came out at 0.198.

On to GUCCUCUUUCACGUGCGCGUGAAAGAGAGACGUGAACCAGAGAAACACACGUUUUGGUAUAUUACCUGGUA [A31C G54U], for which the self-cleavage is 0.0998.

In the case of GUCCUCUUUCACGUGCGCGUGAAAGAGAGAGGUGAACCAGAGAAACACACGUUGUGGUAUAUCACCUGGUA [A31G U63C], the self-cleavage amounted to 0.105.

In the case of GUCCUCUUUCACGUGCGCGUGAAAGAGAGAGGUGAACCAGAGAAACACACGUUGUGGUAUAUAACCUGGUA [A31G U63A], the self-cleavage was found to be 0.144.

On to GUCCUCUUUCACGUGCGCGUGAAAGAGAGACGUGAACCAGAGAAACACACGAUGUGGUAUAUUACCUGGUA [A31C U52A], for which the self-cleavage was determined as 0.28.

GUCCUCUUUCACGUGCGCGUGAAAGAGAGACGUGAACCAGAGAAACACACGCUGUGGUAUAUUACCUGGUA [A31C U52C]: the self-cleavage amounted to 0.196.

Consider GUCCUCUUUCACGUGCGCGUGAAAGAGAGACGUGAACCAGAGAAACCCACGUUGUGGUAUAUUACCUGGUA [A31C A47C], for which the self-cleavage came out at 0.0953.

In the case of GUCCUCUUUCACGUGCGCGUGAAAGAGAGACGUGAACCAGAGAAACUCACGUUGUGGUAUAUUACCUGGUA [A31C A47U], the self-cleavage was 0.192.

With GUCCUCUUUCACGUGCGCGUGAAAGAGAGACGUGAAGCAGAGAAACACACGUUGUGGUAUAUUACCUGGUA [A31C C37G], the self-cleavage amounted to 0.146.

Turning to GUCCUCUUUCACGUGCGCGUGAAAGAGAGAGGUGAACCAGAGAAACACACGUUGUGGUAUAUUACUUGGUA [A31G C66U], the self-cleavage was found to be 0.294.

For GUCCUCUUUCACGUGCGCGUGAAAGAGAGAGGUGAACCAGAGAAAGACACGUUGUGGUAUAUUACCUGGUA [A31G C46G], the self-cleavage amounted to 0.0961.

Consider GUCCUCUUUCACGUGCGCGUGAAAGAGAGAGGUGAACCAGAGAAAUACACGUUGUGGUAUAUUACCUGGUA [A31G C46U], for which the self-cleavage came to 0.142.

Regarding GUCCUCUUUCACGUGCGCGUGAAAGAGAGAGGUGAACCAGAGAAAAACACGUUGUGGUAUAUUACCUGGUA [A31G C46A], the self-cleavage was determined as 0.155.

As to GUCCUCUUUCACGUGCGCGUGAAAGAGAGACGUGAACCAGAGAAACACACGUCGUGGUAUAUUACCUGGUA [A31C U53C], the self-cleavage is 0.0661.

For GUCCUCUUUCACGUGCGCGUGAAAGAGAGACGUGAACCAGAGAAACACACGUGGUGGUAUAUUACCUGGUA [A31C U53G], the self-cleavage stood at 0.176.
